# Measurements reported in patent publication US20100173324A1.
# Target: human CD27 expressed on CHO/DG44 cells (normal O-linked sugar chain) (human) (UniProt P26842)
# Experiment: flow cytometry on CD27/DG44-4 cells
# UniProt P26842, sequence (P26842 20-260 H233R limits assumed): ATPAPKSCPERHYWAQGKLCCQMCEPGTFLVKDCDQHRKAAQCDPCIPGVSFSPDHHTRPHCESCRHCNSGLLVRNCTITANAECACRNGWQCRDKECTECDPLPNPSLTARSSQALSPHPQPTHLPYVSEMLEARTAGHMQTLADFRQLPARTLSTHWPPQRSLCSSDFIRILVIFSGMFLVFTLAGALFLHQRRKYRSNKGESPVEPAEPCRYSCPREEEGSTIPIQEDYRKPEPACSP
substance,measurement,value
Anti-CD27 Antibody (O323),EC50 (read off the curve),0.2 µg/mL
